According to IntAct's records for PubMed 21037004:

B1: Protein-export protein SecB (Escherichia coli (strain K12)), P0AG86 (parent)
chain: MSEQNNTEMTFQIQRIYTKDISFEAPNAPHVFQKDWQPEVKLDLDTASSQLADDVYEVVLRVTVTASLGEETAFLCEVQQGGIFSIAGIEGTQMAHCLGAYCPNILFPYARECITSMVSRGTFPQLNLAPVNFDALFMNYLQQQAGEGTEEHQDA

Variants of: B1
Settings: with seca_ecoli secA

Effect of a mutation on the interaction, increasing interaction strength:
Q33C
L126C
A87C
T46C
Q143C
G146E
Q14C
Q50C
E24C
D43C
S85C
L136C
E150C
E147C
A155C
T149C
T92C
T65C
L141C
D45C
D35C
